Experimental findings from US20200222518A1 (BOARD OF SUPERVISORS OF LOUISIANA STATE UNIVERSITY AND …, published 2020) are described below.

One test has as its target T1, Fba peptide (Candida albicans).
T1 construct: Synthetic 14-mer (GenScript) from the N-terminus of C. albicans fructose-bisphosphate aldolase
T1 peptide: YGKDVKDLFDYAQEC
The test can be described thus: specificity listed in table; hybridomas screened by anti-peptide ELISA. For orientation: In an ELISA, binding on a coated surface is turned into a signal by an enzyme label.

The target in another test is T2, Met6 peptide (Candida albicans).
T2 construct: Synthetic 14-mer (GenScript) from the N-terminus of the C. albicans Met6 cell wall protein
T2 peptide: PRIGGQRELKKITEC
The description is as above.

B1: 2D5F7 (antibody, V domains shown)
VH: QVQLQQSAAELARPGASVKMSCKASGYTFSSYTMHWVKQRPGQGLEWIGYINPSSGYTDYNQKFKDKTTLTADKSSSTAYMQLSSLTSEDSAVYYCARLYDNYDYYAMDYWGQGTSVTVSS
VL: DIVMSQSPSSLAVSAGEKVTMSCKSSQSLLNSRIRKNYLAWYQQKPGQSPKLLIYWASTRESGVPDRFTGSGSGTDFTLTISSVQADDLAVYYCKQSYNLLTFGAGTKLELK
notes: Mouse hybridoma mAb, IgG2b; The entries are 140 AA and 132 AA and their DNA starts with ATG, so they may include the leader peptide; The limits are printed only as drawings and no residues were cut
As to B1, the binding result with Fba peptide is on record as “binds”.

B2: 2B10C1 (antibody, V domains shown)
VH: QVQLQQPGAEVVRPGASVKVSCKASGYTVSSYWMSWVKQRPEQGLEWIGRIDPYDSETHYNQKFKDKAILTVDKSSSTAYMQLSSLTSEDSAVYYCARTAASFDYWGQGTTLTVSS
VL: DVVMTQTPLSLPVSLGDQASISCRSSQSLVHSNGNSYLHWYLQKPGQSPKLLIYKVSNRFSGVPDRFSGSGSGTDFTLNISRVEAEDLGVYFCSQSTHVPFTFGSGTKLEIK
notes: Mouse hybridoma mAb, IgG1; The entries are 135 AA and 131 AA and their DNA starts with ATG, so they may include the leader peptide; The limits are printed only as drawings and no residues were cut; also called 2810C1
Consider B2, for which, in the test with Met6 peptide, the binding result is “binds”.
